In the RNAGym collection of RNA variant scans (doi:10.1073/pnas.2313332121):

B1: TPR t1 (parent)
chain: GACCAAUCUGCCCUCAGAGCUCGAGAACAUCUUCGGAUGCAGAGGAGGCAGGCUUCGGUGGCGCGAUAGCGCCAACGUCCUCAACCUCCAAUGCAUCCCACCACAUGAUGAUGCCUGAAGAGCCUUGGUUUUUUG

Variants of: B1
Assay: polymerase ribozyme fitness, log enrichment relative to wild type (log ratio); higher = more active; in vitro selection for triplet polymerase activity
Method in brief: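 Libraries of mutants in each subunit of a heterodimeric triplet polymerase ribozyme were generated by PCR and transcribed. In triplicate, each went through one in vitro selection round: annealing with biotinylated primer, partner subunit and triplets; frozen incubation at −7 °C; gel excision of extended constructs; streptavidin-bead capture; RT-PCR. Fitness, taken from Illumina sequencing of input and output libraries, is the logarithm of a genotype's enrichment over wild-type enrichment, averaged across replicates with inverse-variance weights. The logarithm is base 2, and genotypes needed ≥10 input reads and ≥1 read per output to be kept.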

In order of rising “polymerase ribozyme fitness (log ratio)” value:
1. A46U G52A U109C C124G  -7.25
2. G44C G47U C53A C76G C102G G110C  -7.23
3. G45U A68G C79G C99U U112A  -7.19
4. G45U G48U A68C A74C A95G C97A C98U C104U G122U  -6.66
5. G45U G52A C72U G110C C123U  -6.25
6. A46C C89A  -5.69
7. G45A G60U C64U C94U A105U C124A G127A  -5.55
8. G47A G69C C86A C97U C115U C124G U125C  -5.52
9. G45U G51A C94G  -5.45
10. G47A C70A G77A C79U C86G  -5.44
11. G45U C104A G110U A118C  -5.08
12. G45U A84G U96G C101G  -4.84
13. A46U C72G C114U  -4.52
14. G45U A111U  -4.37
15. G44C G61A C80A  -4.34
16. G45A U59A A83C C114G G122C  -4.2
17. G45C C53G U81A A91C  -4.15
18. G45A A46C G58U G61U C85A  -4.13
19. A46G G117C  -3.96
20. G45U A46U U106G  -3.7
21. G45U C70A C115A G128U  -3.65
22. A46U C56G U78C G93C G120U  -3.59
23. A46U G63U U78A A90U  -3.56
24. A46U C72G C114G  -3.52
25. G45U C82A C102U G122A  -3.36
26. A46C U87A G110C  -3.24
27. G45C U96A G113C  -3.21
28. G45U C62U U112G U126A G128A U130A  -3.11
29. G47A C76A C115U  -3.07
30. G44U A46U A111C  -3.04
31. A46G G51U  -2.98
32. A46C C62U U106G  -2.88
33. G45U A66C  -2.87
34. A46C C64A G69C C94A  -2.85
35. G45U C72G G93A  -2.7
36. A46U G77A C123A U129A  -2.69
37. G45C G60C U129A  -2.68
38. G45C U129A  -2.61
39. G44C G71C A84C  -2.61
40. G44U C70U C72U C79U G122A  -2.61
41. A46U G57A C79G  -2.59
42. G47A C85A  -2.48
43. G44U G113C U130A  -2.45
44. G45U G52U G61C  -2.32
45. G47A C115U  -2.3
46. G45C G69C  -2.23
47. A46U C62A  -2.13
48. A46C U112G G122U G135U  -2.04
49. G45U C56A  -2.01
50. A46C C101G G120A  -2
51. G45A C114A  -1.97
52. A46G G127A  -1.96
53. A46U G48A C104U  -1.94
54. G47A C72U U78A C88A A119U U132C  -1.87
55. A46U U125A  -1.67
56. A46U A74C U96A  -1.66
57. G45C C89U U133A  -1.58
58. G45A C89U U133A  -1.52
59. G45A U130A  -1.49
60. A46U A105C A119G C124A  -1.39
61. G44U C72U  -1.36
62. A46U C73U A90C U133A  -1.35
63. G47A G61U  -1.24
64. A46G A50C C85U A90G  -1.11
65. A46U  -1.11
66. G47A C56U C94U  -1.1
67. G45U U59A C101U  -0.987
68. A46C  -0.983
69. G45U G57C G69U G110A U125A  -0.972
70. A46C G60U  -0.736
71. G44U A46U U112C  -0.701
72. G45U C64U A121G  -0.662
73. G47A C72G  -0.62
74. A46C C89U  -0.611
75. A46U C70U C124U  -0.517
76. G45A G61A  -0.513
77. G45A G61U  -0.292
78. G45C G58C  -0.221
79. A46G  -0.119
80. G45U C72A U87A A121C  0.113
81. G47A C124G  0.559
82. G45A C80U C115A A121G  0.603
83. G44C U112C  0.766
